Results as given in US20180072816A1.

Target: human CXCR4 (human) (UniProt P61073)
Experiment: cell-based or functional assay

Sequence of human CXCR4 (human) (P61073 whole entry): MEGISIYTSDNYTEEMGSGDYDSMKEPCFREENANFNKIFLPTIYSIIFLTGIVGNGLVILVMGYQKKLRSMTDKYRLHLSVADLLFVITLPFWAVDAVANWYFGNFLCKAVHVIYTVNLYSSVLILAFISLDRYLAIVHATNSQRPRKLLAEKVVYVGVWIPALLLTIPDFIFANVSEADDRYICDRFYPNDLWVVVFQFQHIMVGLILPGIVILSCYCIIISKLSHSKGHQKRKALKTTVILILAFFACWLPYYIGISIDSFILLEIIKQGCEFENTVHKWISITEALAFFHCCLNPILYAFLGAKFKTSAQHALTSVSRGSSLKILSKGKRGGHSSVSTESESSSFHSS

Substance: anti-CXCR4 MAb 12G5 (antibody)
- IC50 (nM) in β-Arrestin BRET assay (Antagonist mode in the presence of 100 nM SDF-1): 64 nM
